According to paper PMC3458533:
Substitutions are numbered along the chain they refer to.

Key:
Assay in all cases: filter binding
[1] = biological target: T1, R.MwoI K112A (Methanothermobacter wolfeii (DSMZ), UniProt O59646 1-363, K112A)
T1 sequence: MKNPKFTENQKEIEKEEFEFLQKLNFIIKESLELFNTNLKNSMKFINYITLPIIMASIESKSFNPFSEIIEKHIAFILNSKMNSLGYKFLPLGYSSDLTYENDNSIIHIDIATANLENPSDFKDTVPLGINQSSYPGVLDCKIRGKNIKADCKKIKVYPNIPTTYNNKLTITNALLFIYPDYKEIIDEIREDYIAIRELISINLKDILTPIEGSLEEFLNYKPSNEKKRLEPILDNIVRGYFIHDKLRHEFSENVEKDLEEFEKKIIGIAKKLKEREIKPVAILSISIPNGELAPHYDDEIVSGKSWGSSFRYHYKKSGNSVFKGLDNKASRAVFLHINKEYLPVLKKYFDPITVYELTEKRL

[2] = biological target: T2, R.MwoI S310A (Methanothermobacter wolfeii (DSMZ), UniProt O59646 1-363, S310A)
T2 sequence: T1 sequence with A112K, S310A

[3] = biological target: T3, R.MwoI T125R (Methanothermobacter wolfeii (DSMZ), UniProt O59646 1-363, T125R)
T3 sequence: T1 sequence with A112K, T125R

[4] = biological target: T4, R.MwoI E68A (Methanothermobacter wolfeii (DSMZ), UniProt O59646 1-363, E68A)
T4 sequence: T1 sequence with E68A, A112K

[5] = biological target: T5, R.MwoI A330R (Methanothermobacter wolfeii (DSMZ), UniProt O59646 1-363, A330R)
T5 sequence: T1 sequence with A112K, A330R

[6] = biological target: T6, R.MwoI D110A (Methanothermobacter wolfeii (DSMZ), UniProt O59646 1-363, D110A)
T6 sequence: T1 sequence with D110A, A112K

[7] = biological target: T7, R.MwoI S310K (Methanothermobacter wolfeii (DSMZ), UniProt O59646 1-363, S310K)
T7 sequence: T1 sequence with A112K, S310K

[8] = biological target: T8, R.MwoI S310D (Methanothermobacter wolfeii (DSMZ), UniProt O59646 1-363, S310D)
T8 sequence: T1 sequence with A112K, S310D

B1: MwoI target oligonucleotide (dsDNA)
DNA 1: CGGCTGTAGTCGCAC
DNA 2: GTGCGACTACAGCCG
**Q.** With B1 as the binder, how does the binding signal [1] read?
**A.** Its binding signal is 114 % of wt.

**Q.** And the binding signal [2]?
**A.** Its binding signal is 53 % of wt.

**Q.** And the binding signal [3]?
**A.** The binding signal was 42 % of wt.

**Q.** What about the binding signal [4] of the same binder?
**A.** The binding signal was > 350 % of wt.

**Q.** And the binding signal [5]?
**A.** Its binding signal is > 350 % of wt.

**Q.** And the binding signal [6]?
**A.** Its binding signal is 25 % of wt.

B2: C/G (GCCN5GGC) (dsDNA)
DNA 1: GACAGTGCCATCTCGGCGACAGT
DNA 2: ACTGTCGCCGAGATGGCACTGTC
**Q.** Does B2 bind [7]?
**A.** Result: binds

B3: G/C (GCGN5CGC) (dsDNA)
DNA 1: GACAGTGCGATCTCCGCGACAGT
DNA 2: ACTGTCGCGGAGATCGCACTGTC
**Q.** Does B3 bind [8]?
**A.** Result: binds

B4: A/T (GCAN5TGC) (dsDNA)
DNA 1: GACAGTGCAATCTCTGCGACAGT
DNA 2: ACTGTCGCAGAGATTGCACTGTC
**Q.** Does B4 bind [8]?
**A.** Result: binds
